Measured values published in the RNAGym collection of RNA variant scans (doi:10.7554/elife.90254).

B1: OR4K15 (parent)
chain: GUUAACGGUCAUAGGCCAUGGAAACUAGGAGCACCAUUUCGCUGCCAGUGAAGAAAUGAACAAAGAAAAUCUGGGCCAGGCAGGCAUCAAAAGAAAUAGUCUUGCGCUCAACCAGAAAGUCUGUAAUCAUUUUAAGGGUA

Variants of: B1
Assay: self-cleavage, relative activity (ratio to wild type); higher = more cleavage; in vitro, sequencing; the parent is a self-cleaving ribozyme

Going from GUUAACGGUCAUAGGCCAUGGAAACUAGGAGCACCAUUUCGCUGCCAGUGAAGAAAUGAACAAAGAAAAUCUGGGCCAGGCAGGCAUCUAAAGAAAUAGUCUUGCGCUCAACCAGAAAGUCUGUAAUCAUUUUAAGGGUA to GUUAACGGUCAUAGGCCAUGGAAACUAGGAGCACCAUUUCGCUGCCAGUGAAGAAAUGAACAAAGAAAAUCUGGGCCAGGCAGGCAUCGAAAGAAAUAAUCUUGCGCUCAACCAGAAAGUCUGUAAUCAUUUUAAGGGUA, the self-cleavage falls from 1.65 to 1.15.

First: GUUAACGGUCAUAGGCCAUGGAAACUAGGAGCACCAUUUCGCUGCCAGUGAAGAAAUGAACAAAGAAAAUCUGGGCCAGGCAGGCAUCGAAAGAAAUAGUCUUGCGCUCAACCAGAAAGUCUGCAAUCAUUUUAAGGGUA
Second: GUUAACGGUCAUAGGCCAUGGAAACUAGGAGCACCAUUUCGCUGCCAGUGAAGAAAUGAACAAAGAAAAUCUGGGCCAGGCAGGCAUCUAAAGAAAUAGUCUUGCGCUCAACCAGAACGUCUGUAAUCAUUUUAAGGGUA
The self-cleavage of the first is higher: 0.93 for the first, 0.7 for the second.

Going from GUUAACGGUCAUAGGCCAUGGAAACUAGGAGCACCAUUUCGCUGCCAGUGAAGAAAUGAACAAAGAAAAUCUGGGCCAGGCAGGCAUCUAAAGAAAUAGUCUUGCGCUCAACCAGAAGGUCUGUAAUCAUUUUAAGGGUA to GUUAACGGUCAUAGGCCAUGGAAACUAGGAGCACCAUUUCGCUGCCAGUGAAGAAAUGAACAAAGAAAAUCUGGGCCAGGCAGGCAUCGAAAGAAAUAGUCUCGCGCUCAACCAGAAAGUCUGUAAUCAUUUUAAGGGUA, the self-cleavage falls from 1.61 to 0.55.

First: GUUAACGGUCAUAGGCCAUGGAAACUAGGAGCACCAUUUCGCUGCCAGUGAAGAAAUGAACAAAGAAAAUCUGGGCCAGGCAGGCAUCUAAAGAAAUAGUCAUGCGCUCAACCAGAAAGUCUGUAAUCAUUUUAAGGGUA
Second: GUUAACGGUCAUAGGCCAUGGAAACUAGGAGCACCAUUUCGCUGCCAGUGAAGAAAUGAACAAAGAAAAUCUGGGCCAGGCAGGCAUCUAAAGAAACAGUCUUGCGCUCAACCAGAAAGUCUGUAAUCAUUUUAAGGGUA
The self-cleavage of the first is lower: 0.98 for the first, 1.58 for the second.

First: GUUAACGGUCAUAGGCCAUGGAAACUAGGAGCACCAUUUCGCUGCCAGUGAAGAAAUGAACAAAGAAAAUCUGGGCCAGGCAGGCAUCGAAAGAAAUAGACUUGCGCUCAACCAGAAAGUCUGUAAUCAUUUUAAGGGUA
Second: GUUAACGGUCAUAGGCCAUGGAAACUAGGAGCACCAUUUCGCUGCCAGUGAAGAAAUGAACAAAGAAAAUCUGGGCCAGGCAGGCAUCGAAAGAAAUAGGCUUGCGCUCAACCAGAAAGUCUGUAAUCAUUUUAAGGGUA
The self-cleavage of the first is lower: 0.5 for the first, 2.03 for the second.

First: GUUAACGGUCAUAGGCCAUGGAAACUAGGAGCACCAUUUCGCUGCCAGUGAAGAAAUGAACAAAGAAAAUCUGGGCCAGGCAGGCAUCUAAAGAGAUAGUCUUGCGCUCAACCAGAAAGUCUGUAAUCAUUUUAAGGGUA
Second: GUUAACGGUCAUAGGCCAUGGAAACUAGGAGCACCAUUUCGCUGCCAGUGAAGAAAUGAACAAAGAAAAUCUGGGCCAGGCAGGCAUCUAAAGAAAUAGUCUUGCGCUCAACCGGAAAGUCUGUAAUCAUUUUAAGGGUA
The self-cleavage of the first is higher: 2.26 for the first, 0.49 for the second.

Compared with GUUAACGGUCAUAGGCCAUGGAAACUAGGAGCACCAUUUCGCUGCCAGUGAAGAAAUGAACAAAGAAAAUCUGGGCCAGGCAGGCAUCUAAAGAAAUAGUCUUGCGCUCAACCAGAAAGUCUGUAAUCAUUUUAAGGGUG, GUUAACGGUCAUAGGCCAUGGAAACUAGGAGCACCAUUUCGCUGCCAGUGAAGAAAUGAACAAAGAAAAUCUGGGCCAGGCAGGCAUCGAAAGAAAUAGUCUUGCGCUCAACCAGUAAGUCUGUAAUCAUUUUAAGGGUA is lower in self-cleavage: 1.61 for the first, 0.31 for the second.

Compared with GUUAACGGUCAUAGGCCAUGGAAACUAGGAGCACCAUUUCGCUGCCAGUGAAGAAAUGAACAAAGAAAAUCUGGGCCAGGCAGGCAUCGAAAGAAAUAGUCUUGCGCUCAACCAGGAAGUCUGUAAUCAUUUUAAGGGUA, GUUAACGGUCAUAGGCCAUGGAAACUAGGAGCACCAUUUCGCUGCCAGUGAAGAAAUGAACAAAGAAAAUCUGGGCCAGGCAGGCAUCUAAAGAAAUUGUCUUGCGCUCAACCAGAAAGUCUGUAAUCAUUUUAAGGGUA is higher in self-cleavage: 0.7 for the first, 1.41 for the second.

Compared with GUUAACGGUCAUAGGCCAUGGAAACUAGGAGCACCAUUUCGCUGCCAGUGAAGAAAUGAACAAAGAAAAUCUGGGCCAGGCAGGCAUCUAAAGAAAUAGUCUUGCGCUCAACCAGUAAGUCUGUAAUCAUUUUAAGGGUA, GUUAACGGUCAUAGGCCAUGGAAACUAGGAGCACCAUUUCGCUGCCAGUGAAGAAAUGAACAAAGAAAAUCUGGGCCAGGCAGGCAUCGAAAGAAAUAGUCUUGCGCUCAACCAGAAAGUCCGUAAUCAUUUUAAGGGUA is higher in self-cleavage: 0.46 for the first, 1.03 for the second.

Compared with GUUAACGGUCAUAGGCCAUGGAAACUAGGAGCACCAUUUCGCUGCCAGUGAAGAAAUGAACAAAGAAAAUCUGGGCCAGGCAGGCAUCUAAAGAAAUAGUCUUGCGCUCUACCAGAAAGUCUGUAAUCAUUUUAAGGGUA, GUUAACGGUCAUAGGCCAUGGAAACUAGGAGCACCAUUUCGCUGCCAGUGAAGAAAUGAACAAAGAAAAUCUGGGCCAGGCAGGCAUCGAAAGAAAUUGUCUUGCGCUCAACCAGAAAGUCUGUAAUCAUUUUAAGGGUA is higher in self-cleavage: 1.46 for the first, 2.15 for the second.

Compared with GUUAACGGUCAUAGGCCAUGGAAACUAGGAGCACCAUUUCGCUGCCAGUGAAGAAAUGAACAAAGAAAAUCUGGGCCAGGCAGGCAUCGAAAGAAAAAGUCUUGCGCUCAACCAGAAAGUCUGUAAUCAUUUUAAGGGUA, GUUAACGGUCAUAGGCCAUGGAAACUAGGAGCACCAUUUCGCUGCCAGUGAAGAAAUGAACAAAGAAAAUCUGGGCCAGGCAGGCAUCGAAAGAAAUAGUCUUGCGCACAACCAGAAAGUCUGUAAUCAUUUUAAGGGUA is lower in self-cleavage: 0.88 for the first, 0.02 for the second.

Compared with GUUAACGGUCAUAGGCCAUGGAAACUAGGAGCACCAUUUCGCUGCCAGUGAAGAAAUGAACAAAGAAAAUCUGGGCCAGGCAGGCAUCGAAAGAAAUAGUCUUGCGCCCAACCAGAAAGUCUGUAAUCAUUUUAAGGGUA, GUUAACGGUCAUAGGCCAUGGAAACUAGGAGCACCAUUUCGCUGCCAGUGAAGAAAUGAACAAAGAAAAUCUGGGCCAGGCAGGCAUCGAAAGAAAUAGUCUUGCGCGCAACCAGAAAGUCUGUAAUCAUUUUAAGGGUA is lower in self-cleavage: 0.02 for the first, 0.01 for the second.

Compared with GUUAACGGUCAUAGGCCAUGGAAACUAGGAGCACCAUUUCGCUGCCAGUGAAGAAAUGAACAAAGAAAAUCUGGGCCAGGCAGGCAUCUAAAGAAAUAGUCUUGCGCUCAACCAGAUAGUCUGUAAUCAUUUUAAGGGUA, GUUAACGGUCAUAGGCCAUGGAAACUAGGAGCACCAUUUCGCUGCCAGUGAAGAAAUGAACAAAGAAAAUCUGGGCCAGGCAGGCAUCUAAAGAAAUAGUCUUGCGCUCAACCAGAGAGUCUGUAAUCAUUUUAAGGGUA is higher in self-cleavage: 0.7 for the first, 2.46 for the second.

Going from GUUAACGGUCAUAGGCCAUGGAAACUAGGAGCACCAUUUCGCUGCCAGUGAAGAAAUGAACAAAGAAAAUCUGGGCCAGGCAGGCAUCUAAAGAAAUAGUCUAGCGCUCAACCAGAAAGUCUGUAAUCAUUUUAAGGGUA to GUUAACGGUCAUAGGCCAUGGAAACUAGGAGCACCAUUUCGCUGCCAGUGAAGAAAUGAACAAAGAAAAUCUGGGCCAGGCAGGCAUCGAAAGAAGUAGUCUUGCGCUCAACCAGAAAGUCUGUAAUCAUUUUAAGGGUA, the self-cleavage falls from 1.09 to 0.83.

Going from GUUAACGGUCAUAGGCCAUGGAAACUAGGAGCACCAUUUCGCUGCCAGUGAAGAAAUGAACAAAGAAAAUCUGGGCCAGGCAGGCAUCGAAAGAAUUAGUCUUGCGCUCAACCAGAAAGUCUGUAAUCAUUUUAAGGGUA to GUUAACGGUCAUAGGCCAUGGAAACUAGGAGCACCAUUUCGCUGCCAGUGAAGAAAUGAACAAAGAAAAUCUGGGCCAGGCAGGCAUCUAAAGAAAUAGUCUUGCGCUCAACCAGAAAGUCUGUAAUCGUUUUAAGGGUA, the self-cleavage rises from 1.27 to 1.59.

Compared with GUUAACGGUCAUAGGCCAUGGAAACUAGGAGCACCAUUUCGCUGCCAGUGAAGAAAUGAACAAAGAAAAUCUGGGCCAGGCAGGCAUCUAAAGAAAUAGUCUUGCGCUCAACCAGAAAGUCUGUAAUCCUUUUAAGGGUA, GUUAACGGUCAUAGGCCAUGGAAACUAGGAGCACCAUUUCGCUGCCAGUGAAGAAAUGAACAAAGAAAAUCUGGGCCAGGCAGGCAUCUAGAGAAAUAGUCUUGCGCUCAACCAGAAAGUCUGUAAUCAUUUUAAGGGUA is higher in self-cleavage: 0.68 for the first, 1.78 for the second.

Going from GUUAACGGUCAUAGGCCAUGGAAACUAGGAGCACCAUUUCGCUGCCAGUGAAGAAAUGAACAAAGAAAAUCUGGGCCAGGCAGGCAUCGAAAGAAAUAGUCUUGCGCUCGACCAGAAAGUCUGUAAUCAUUUUAAGGGUA to GUUAACGGUCAUAGGCCAUGGAAACUAGGAGCACCAUUUCGCUGCCAGUGAAGAAAUGAACAAAGAAAAUCUGGGCCAGGCAGGCAUCUAAAGAAAUAGUCUUGCGCUCAACCAGAAAGUCUGUAAUCAUUUUAGGGGUA, the self-cleavage rises from 0.12 to 1.53.

Compared with GUUAACGGUCAUAGGCCAUGGAAACUAGGAGCACCAUUUCGCUGCCAGUGAAGAAAUGAACAAAGAAAAUCUGGGCCAGGCAGGCAUCUAAAGAAAUAGCCUUGCGCUCAACCAGAAAGUCUGUAAUCAUUUUAAGGGUA, GUUAACGGUCAUAGGCCAUGGAAACUAGGAGCACCAUUUCGCUGCCAGUGAAGAAAUGAACAAAGAAAAUCUGGGCCAGGCAGGCAUCGAAAGAAAUAGUCUUGCGCUCAACCAGAAAGUCUGUAAUCAUUCUAAGGGUA is lower in self-cleavage: 2.55 for the first, 1.4 for the second.

First: GUUAACGGUCAUAGGCCAUGGAAACUAGGAGCACCAUUUCGCUGCCAGUGAAGAAAUGAACAAAGAAAAUCUGGGCCAGGCAGGCAUCGAAAGAAAUAGUCUUGCGCUCAACCAGAAAGCCUGUAAUCAUUUUAAGGGUA
Second: GUUAACGGUCAUAGGCCAUGGAAACUAGGAGCACCAUUUCGCUGCCAGUGAAGAAAUGAACAAAGAAAAUCUGGGCCAGGCAGGCAUCGAAAGAAAUAGUCUUGCGCUCAACCAGAACGUCUGUAAUCAUUUUAAGGGUA
The self-cleavage of the first is higher: 0.65 for the first, 0.01 for the second.

Going from GUUAACGGUCAUAGGCCAUGGAAACUAGGAGCACCAUUUCGCUGCCAGUGAAGAAAUGAACAAAGAAAAUCUGGGCCAGGCAGGCAUCGAAAGAAAUAGUCUUGCGCUCAACCAGAAAGUCUGUAAUCAUUUUAAGGGCA to GUUAACGGUCAUAGGCCAUGGAAACUAGGAGCACCAUUUCGCUGCCAGUGAAGAAAUGAACAAAGAAAAUCUGGGCCAGGCAGGCAUCGAAAGAAAUAGUCUUGCGCUCAACCAGAAAGUCUGUAAUCAUUUUAAGGGAA, the self-cleavage rises from 1.02 to 1.67.

With GUUAACGGUCAUAGGCCAUGGAAACUAGGAGCACCAUUUCGCUGCCAGUGAAGAAAUGAACAAAGAAAAUCUGGGCCAGGCAGGCAUCGAAAGAAAUAGUCUUGCGCUCAACCAGAAAGUCUGUAAUCAUAUUAAGGGUA the self-cleavage was 0.3.
